US20210346401

Assays:
[1] = biological target: VISA/MAVS (endogenous, MLFs) (UniProt Q8VCF0)
[2] = biological target: TBK1 (endogenous, MLFs) (UniProt Q9WUN2)
[3] = biological target: RIG-I (endogenous, MLFs) (UniProt Q6Q899)
[4] = biological target: MITA/STING (endogenous, MLFs) (UniProt Q3TBT3)
[5] = biological target: IRF3 (endogenous, MLFs) (UniProt P70671)
[6] = biological target: VISA-6YF (UniProt Q7Z434)
[7] = biological target: HA-tagged IRF3 (overexpressed in HEK293 cells) (UniProt Q14653)
Sequence of HA-tagged IRF3 (overexpressed in HEK293 cells) (Q14653 whole entry): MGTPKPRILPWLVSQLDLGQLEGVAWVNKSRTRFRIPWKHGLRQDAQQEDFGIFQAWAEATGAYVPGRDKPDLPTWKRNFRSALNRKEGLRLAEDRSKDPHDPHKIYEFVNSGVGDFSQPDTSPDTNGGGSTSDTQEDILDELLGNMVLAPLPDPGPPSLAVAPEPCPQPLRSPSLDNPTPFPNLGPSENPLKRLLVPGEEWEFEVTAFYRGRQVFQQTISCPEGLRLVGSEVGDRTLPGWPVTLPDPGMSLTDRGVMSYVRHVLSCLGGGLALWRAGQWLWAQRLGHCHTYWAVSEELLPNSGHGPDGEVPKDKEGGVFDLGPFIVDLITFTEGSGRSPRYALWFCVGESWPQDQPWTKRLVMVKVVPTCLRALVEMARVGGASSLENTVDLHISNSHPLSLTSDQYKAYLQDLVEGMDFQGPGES

[8] = biological target: HA-tagged VISA (overexpressed in HEK293 cells) (UniProt Q7Z434)
[9] = biological target: HA-tagged TBK1 (overexpressed in HEK293 cells) (UniProt Q9UHD2)
Sequence of HA-tagged TBK1 (overexpressed in HEK293 cells) (Q9UHD2 whole entry): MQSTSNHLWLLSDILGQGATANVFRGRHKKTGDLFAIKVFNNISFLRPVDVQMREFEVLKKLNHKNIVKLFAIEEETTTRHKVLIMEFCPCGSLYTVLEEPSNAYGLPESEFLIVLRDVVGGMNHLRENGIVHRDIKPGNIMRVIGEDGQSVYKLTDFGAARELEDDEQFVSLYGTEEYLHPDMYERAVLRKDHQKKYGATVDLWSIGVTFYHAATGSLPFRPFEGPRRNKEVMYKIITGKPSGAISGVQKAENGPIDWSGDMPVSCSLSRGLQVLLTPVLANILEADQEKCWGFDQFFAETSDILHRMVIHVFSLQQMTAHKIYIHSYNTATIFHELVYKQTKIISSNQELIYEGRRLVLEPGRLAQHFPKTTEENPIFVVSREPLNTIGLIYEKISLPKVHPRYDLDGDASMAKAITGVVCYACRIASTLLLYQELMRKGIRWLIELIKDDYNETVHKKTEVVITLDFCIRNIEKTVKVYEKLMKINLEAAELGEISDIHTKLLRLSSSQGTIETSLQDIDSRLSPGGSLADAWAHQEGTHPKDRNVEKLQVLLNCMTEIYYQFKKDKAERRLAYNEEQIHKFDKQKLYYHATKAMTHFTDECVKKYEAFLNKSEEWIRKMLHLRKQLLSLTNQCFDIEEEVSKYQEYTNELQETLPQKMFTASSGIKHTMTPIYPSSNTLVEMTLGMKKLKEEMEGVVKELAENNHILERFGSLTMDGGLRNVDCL

[10] = biological target: IRF3-Y/F (UniProt Q14653)
Sequence of IRF3-Y/F (Q14653 whole entry Y107F): as the sequence (Q14653 whole entry) above, with Y107F counted along it

[11] = biological target: MITA-Y/F (UniProt Q86WV6)
[12] = biological target: HA-tagged RIG-I (overexpressed in HEK293 cells) (UniProt O95786)
Sequence of HA-tagged RIG-I (overexpressed in HEK293 cells) (O95786 whole entry): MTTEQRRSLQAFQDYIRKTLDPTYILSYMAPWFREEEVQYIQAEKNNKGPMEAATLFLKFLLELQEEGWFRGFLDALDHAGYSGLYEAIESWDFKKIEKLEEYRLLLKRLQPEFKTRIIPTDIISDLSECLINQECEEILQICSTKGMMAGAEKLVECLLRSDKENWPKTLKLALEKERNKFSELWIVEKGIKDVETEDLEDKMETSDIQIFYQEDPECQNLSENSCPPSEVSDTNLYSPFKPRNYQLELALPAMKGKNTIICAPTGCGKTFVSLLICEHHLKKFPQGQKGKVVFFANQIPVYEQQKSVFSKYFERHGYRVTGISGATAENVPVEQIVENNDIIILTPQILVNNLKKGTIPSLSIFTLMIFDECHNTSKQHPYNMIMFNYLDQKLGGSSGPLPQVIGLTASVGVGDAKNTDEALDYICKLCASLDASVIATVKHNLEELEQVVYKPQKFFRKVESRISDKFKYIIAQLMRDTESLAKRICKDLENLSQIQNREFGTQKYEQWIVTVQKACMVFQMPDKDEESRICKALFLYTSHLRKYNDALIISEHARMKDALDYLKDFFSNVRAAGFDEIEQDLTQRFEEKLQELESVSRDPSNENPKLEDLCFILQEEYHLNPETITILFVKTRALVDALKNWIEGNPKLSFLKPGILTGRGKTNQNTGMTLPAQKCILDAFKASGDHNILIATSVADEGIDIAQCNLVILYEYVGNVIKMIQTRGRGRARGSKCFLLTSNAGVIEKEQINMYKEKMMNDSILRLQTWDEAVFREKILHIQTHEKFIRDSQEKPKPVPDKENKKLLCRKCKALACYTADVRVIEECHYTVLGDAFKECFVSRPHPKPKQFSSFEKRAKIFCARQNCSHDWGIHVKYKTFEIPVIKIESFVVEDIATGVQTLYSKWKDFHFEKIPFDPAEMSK

[13] = biological target: HA-tagged MITA (overexpressed in HEK293 cells) (UniProt Q86WV6)
[14] = biological target: HA-tagged cGAS (overexpressed in HEK293 cells) (UniProt Q8N884)

Sequence of TBK1 (endogenous, MLFs) (Q9WUN2 whole entry): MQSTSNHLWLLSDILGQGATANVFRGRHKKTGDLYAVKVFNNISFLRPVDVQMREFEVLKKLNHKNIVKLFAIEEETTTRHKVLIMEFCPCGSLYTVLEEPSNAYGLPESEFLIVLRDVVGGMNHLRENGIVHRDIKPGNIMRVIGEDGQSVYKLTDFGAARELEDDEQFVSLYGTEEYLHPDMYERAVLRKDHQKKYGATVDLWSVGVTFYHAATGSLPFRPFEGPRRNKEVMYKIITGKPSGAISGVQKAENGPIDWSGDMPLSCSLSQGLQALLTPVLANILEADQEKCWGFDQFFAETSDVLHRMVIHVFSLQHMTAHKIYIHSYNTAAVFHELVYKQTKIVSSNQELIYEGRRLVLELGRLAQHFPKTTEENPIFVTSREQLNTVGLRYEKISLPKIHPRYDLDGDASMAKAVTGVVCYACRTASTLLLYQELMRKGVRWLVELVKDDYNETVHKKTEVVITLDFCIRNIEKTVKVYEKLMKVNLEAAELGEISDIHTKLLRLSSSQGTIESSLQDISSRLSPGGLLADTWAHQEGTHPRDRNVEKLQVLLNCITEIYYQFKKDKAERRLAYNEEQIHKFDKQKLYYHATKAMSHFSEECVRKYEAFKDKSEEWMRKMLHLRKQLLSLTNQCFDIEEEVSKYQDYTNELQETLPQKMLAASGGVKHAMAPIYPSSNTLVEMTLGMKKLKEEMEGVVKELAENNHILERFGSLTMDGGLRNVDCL
Sequence of VISA/MAVS (endogenous, MLFs) (Q8VCF0 whole entry): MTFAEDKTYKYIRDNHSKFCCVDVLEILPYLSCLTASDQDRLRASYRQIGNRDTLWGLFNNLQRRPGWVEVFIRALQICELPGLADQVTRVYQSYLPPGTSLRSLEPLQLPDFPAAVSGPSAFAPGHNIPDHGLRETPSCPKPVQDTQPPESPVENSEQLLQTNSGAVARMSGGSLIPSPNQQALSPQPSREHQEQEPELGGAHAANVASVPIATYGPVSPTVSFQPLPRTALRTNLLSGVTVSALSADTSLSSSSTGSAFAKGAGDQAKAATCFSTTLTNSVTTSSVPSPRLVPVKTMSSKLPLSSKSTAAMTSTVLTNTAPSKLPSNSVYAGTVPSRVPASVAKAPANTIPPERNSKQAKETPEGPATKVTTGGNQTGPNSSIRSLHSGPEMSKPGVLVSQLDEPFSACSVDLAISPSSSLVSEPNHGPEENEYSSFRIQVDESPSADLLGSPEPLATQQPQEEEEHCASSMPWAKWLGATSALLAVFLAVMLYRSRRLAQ
Sequence of IRF3 (endogenous, MLFs) (P70671 whole entry): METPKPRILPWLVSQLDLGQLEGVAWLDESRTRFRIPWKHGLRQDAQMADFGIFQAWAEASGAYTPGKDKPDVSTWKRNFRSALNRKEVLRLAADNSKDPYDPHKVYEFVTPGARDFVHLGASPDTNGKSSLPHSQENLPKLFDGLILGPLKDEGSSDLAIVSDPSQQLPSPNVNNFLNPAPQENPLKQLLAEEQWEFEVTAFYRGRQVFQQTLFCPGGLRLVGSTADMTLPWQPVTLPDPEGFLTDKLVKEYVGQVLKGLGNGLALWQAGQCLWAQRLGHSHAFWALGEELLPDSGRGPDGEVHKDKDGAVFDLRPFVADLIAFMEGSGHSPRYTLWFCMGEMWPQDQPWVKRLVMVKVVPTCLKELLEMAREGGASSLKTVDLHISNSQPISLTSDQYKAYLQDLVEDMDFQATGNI
Sequence of RIG-I (endogenous, MLFs) (Q6Q899 whole entry): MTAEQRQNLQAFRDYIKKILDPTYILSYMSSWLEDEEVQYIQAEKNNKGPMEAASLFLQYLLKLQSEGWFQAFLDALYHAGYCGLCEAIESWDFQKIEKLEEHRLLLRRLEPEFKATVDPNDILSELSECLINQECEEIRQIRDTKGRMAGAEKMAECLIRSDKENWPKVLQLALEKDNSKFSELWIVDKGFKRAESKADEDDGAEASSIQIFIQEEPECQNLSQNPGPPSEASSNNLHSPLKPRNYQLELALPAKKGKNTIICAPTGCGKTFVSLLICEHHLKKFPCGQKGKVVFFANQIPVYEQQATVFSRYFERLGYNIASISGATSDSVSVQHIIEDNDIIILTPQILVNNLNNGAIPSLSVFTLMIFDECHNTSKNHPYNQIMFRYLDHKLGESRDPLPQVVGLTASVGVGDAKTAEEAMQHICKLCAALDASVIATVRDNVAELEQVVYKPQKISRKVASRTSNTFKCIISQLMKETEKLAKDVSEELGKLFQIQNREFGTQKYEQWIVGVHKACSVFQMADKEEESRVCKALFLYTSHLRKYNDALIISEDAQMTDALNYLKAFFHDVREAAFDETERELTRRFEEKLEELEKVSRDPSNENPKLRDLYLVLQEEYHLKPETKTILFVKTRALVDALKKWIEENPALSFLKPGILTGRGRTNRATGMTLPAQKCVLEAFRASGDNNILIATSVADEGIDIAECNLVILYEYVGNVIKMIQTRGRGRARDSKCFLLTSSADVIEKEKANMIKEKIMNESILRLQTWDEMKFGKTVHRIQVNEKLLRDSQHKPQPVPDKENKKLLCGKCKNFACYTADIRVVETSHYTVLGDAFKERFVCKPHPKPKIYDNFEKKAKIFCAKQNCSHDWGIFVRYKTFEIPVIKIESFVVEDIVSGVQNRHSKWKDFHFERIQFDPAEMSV

Row | Substance | virus-induced tyrosine phosphorylation in SRC-deficient MLFs (IP, immunoblot) [1] | virus-induced tyrosine phosphorylation in SRC-deficient MLFs (IP, immunoblot) [2] | virus-induced tyrosine phosphorylation in SRC-deficient MLFs (IP, immunoblot) [3] | virus-induced tyrosine phosphorylation in SRC-deficient MLFs (IP, immunoblot) [4] | virus-induced tyrosine phosphorylation in SRC-deficient MLFs (IP, immunoblot) [5] | SRC-mediated tyrosine phosphorylation (IP, immunoblot) [6] | tyrosine phosphorylation (IP with HA antibody, immunoblot) [7] | tyrosine phosphorylation (IP with HA antibody, immunoblot) [8] | tyrosine phosphorylation (IP with HA antibody, immunoblot) [9] | SRC-mediated tyrosine phosphorylation (IP, immunoblot) [10] | SRC-mediated tyrosine phosphorylation (IP, immunoblot) [11] | tyrosine phosphorylation (IP with HA antibody, immunoblot) [12] | tyrosine phosphorylation (IP with HA antibody, immunoblot) [13] | tyrosine phosphorylation (IP with HA antibody, immunoblot) [14]
1 | SRC (endogenous, MLFs) | SRC-deficiency impaired SeV- or HSV-1-induced tyrosine phosphorylation of endogenous RIG-I, VISA/MAVS, TBK1, IRF3 and MITA/STING | SRC-deficiency impaired SeV- or HSV-1-induced tyrosine phosphorylation of endogenous RIG-I, VISA/MAVS, TBK1, IRF3 and MITA/STING | SRC-deficiency impaired SeV- or HSV-1-induced tyrosine phosphorylation of endogenous RIG-I, VISA/MAVS, TBK1, IRF3 and MITA/STING | SRC-deficiency impaired SeV- or HSV-1-induced tyrosine phosphorylation of endogenous RIG-I, VISA/MAVS, TBK1, IRF3 and MITA/STING | SRC-deficiency impaired SeV- or HSV-1-induced tyrosine phosphorylation of endogenous RIG-I, VISA/MAVS, TBK1, IRF3 and MITA/STING |  |  |  |  |  |  |  |  | 
2 | Flag-tagged SRC (overexpressed in HEK293 cells) |  |  |  |  |  | Simultaneous mutation of Y9, Y92, Y95, Y130, Y140 and Y460 of VISA to F (VISA-6YF) impaired SRC-mediated tyrosine phosphorylation | overexpression of SRC caused tyrosine phosphorylation of RIG-I, VISA, MITA, TBK1 and IRF3, but not cGAS | overexpression of SRC caused tyrosine phosphorylation of RIG-I, VISA, MITA, TBK1 and IRF3, but not cGAS | overexpression of SRC caused tyrosine phosphorylation of RIG-I, VISA, MITA, TBK1 and IRF3, but not cGAS | Mutation of Y107 of IRF3 to F (IRF3-Y/F) impaired SRC-mediated tyrosine phosphorylation of IRF3 | Mutation of Y245 of MITA to F (MITA-Y/F) abolished SRC-mediated tyrosine phosphorylation of MITA | overexpression of SRC caused tyrosine phosphorylation of RIG-I, VISA, MITA, TBK1 and IRF3, but not cGAS | overexpression of SRC caused tyrosine phosphorylation of RIG-I, VISA, MITA, TBK1 and IRF3, but not cGAS | overexpression of SRC caused tyrosine phosphorylation of RIG-I, VISA, MITA, TBK1 and IRF3, but not cGAS
